Measured values published in publication PMC3061879, “Crystal Structure of a Coiled-Coil Domain from Human ROCK I” (PLoS ONE, 2011).

How the values were obtained:
[1] = biological target: the molecule itself; assay: SEC-MALS; Superdex 200 in 20 mM Hepes pH 7.5, 150 mM NaCl, 2 mM TCEP; Wyatt miniDAWN TREOS three-angle light scattering detector and Optilab-rEX refractive index detector
[2] = biological target: the molecule itself; assay: crystal structure; SeMet ROCK (535–700), space group P4(3)2(1)2; 13% MPD, 100 mM NaCl, 100 mM sodium acetate pH 4.9, 10 mM DTT, 5% glycerol, 10 mM spermidine; SAD phasing; four molecules (2 dimers) per asymmetric unit

| Protein | stoichiometry N [1] | binding result [2] |
| --- | --- | --- |
| ROCK (535–704), coiled-coil fragment of human ROCK I (domain or fragment, UniProt Q13464 535-704, looked up, Rho-associated kinase ROCK I (p160 ROCK), human, residues 535-704 of the central coiled-coil domain; The purification is described only for ROCK (535–700); also called ROCK-CC (as called in the text and legend title of the SEC-MALS experiment); source: E. coli Rosetta2 (DE3), purified) LANEKLSQLQKQLEEANDLLRTESDTAVRLRKSHTEMSKSISQLESLNRELQERNRILENSKSQTDKDYYQLQAILEAERRDRGHDSEMIGDLQARITSLQEEVKHLKHNLEKVEGERKEAQDMLNHSEKEKNNLEIDLNYKLKSLQQRLEQEVNEHKVTKARLTDKHQS | 2 |  |
| ROCK coiled-coil domain (ROCK-CC, residues 535–700) of human ROCK I (domain or fragment, UniProt Q13464 535-700, looked up, selenomethionine (SeMet) substituted protein in the crystals used for the structure, Rho-associated kinase ROCK I (p160 ROCK), human, residues 535-700 of the central coiled-coil domain; The model holds residues 542–693 (A), 541–692 (B), 535–692 (C), 535–693 (D); also called ROCK (535–700); p160 ROCK (535–700); source: E. coli Rosetta2 (DE3), purified (Ni-NTA, TEV cleavage, cation exchange HiTrap SP); not shown: 6xHistidine-TEV, N-terminal, cleaved) LANEKLSQLQKQLEEANDLLRTESDTAVRLRKSHTEMSKSISQLESLNRELQERNRILENSKSQTDKDYYQLQAILEAERRDRGHDSEMIGDLQARITSLQEEVKHLKHNLEKVEGERKEAQDMLNHSEKEKNNLEIDLNYKLKSLQQRLEQEVNEHKVTKARLTD |  | binds |
